From patent publication US20230220071A1 (Hoffmann-La Roche, published 2023)
Blank lines part the entries; values can stand above or below the binder they belong to.

How the values were obtained:
[1] = target: T1, biotinylated human transferrin receptor (human, UniProt P02786 89-760, limits assumed, biotinylated (mono-biotinylated in Example 13)); assay: SPR BIAcore B4000, biotinylated TfR captured, 25 C
T1 construct: also called human transferrin receptor-biotinylated; mono-biotinylated human transferrin receptor
Procedure: (§1) A CAP sensor chip (provided in the Biotin CAPture Kit, series S #28-9202-34 GE) was mounted into a BIAcore B4000 system, normalized and addressed in a hydrodynamic manner, according to the manufacturer's instructions. In the first cycle the CAP reagent (as provided in the Kit) was addressed to spot 1, 2, 4 and 5 with a flow rate of 10 μL/min for 300 sec. The human transferrin receptor capture took place in spot 1 (human transferrin receptor-biotinylated) and spot 5 (cynomolgus transferrin receptor-biotinylated) with a flow rate of 10 μL/min and a contact time of 30 sec. The receptors were diluted to a concentration of 50 nM with running buffer (1×PBS #28995084, GE Healthcare, supplemented with 0.25 M NaCl). The antibodies were injected into all flow cells in a concentration series of 100 nM, 50 nM, 25 nM and 0 nM for 180 sec at a flow speed of 30 μL/min. Dissociation time was set to 300 sec. Regeneration of the whole complex from the CAP chip has been performed utilizing the regeneration solution provided in the Biotin CAPture Kit (120 sec with a flow rate of 10 μL/min). To control the active protein concentration a second cycle was performed in spot 5 utilizing biotinylated protein A (#P2165-2MG, Sigma) with a flow rate of 10 μL/min and a contact time of 30 sec. Spot 1 was kept empty in this control cycle. The antibodies and the regeneration were handled like in cycle 1. Relevant kinetic data was calculated using the BIAcore B4000 evaluation software. The dissociation from the human transferrin receptor has been determined applying the 1:1 dissociation fit.

[2] = target: T2, human transferrin receptor (BIAcore, construct not stated) (human, UniProt P02786 89-760); assay: SPR (BIAcore)
T2 construct: also called huTfR

[3] = target: T3, cynomolgus transferrin receptor (BIAcore, construct not stated) (cynomolgus, UniProt H9EXL1 89-760 (rhesus entry)); assay: SPR (BIAcore)
T3 construct: also called cyTfR; Cyno TfR

[4] = target: T4, human transferrin receptor on stably transfected CHO-K1 cells (human, UniProt P02786 1-760); assay: FACS on hTfR-CHO cells
T4 construct: whole, on cells; also called hTfR-CHO; huTfR

[5] = target: T5, cynomolgus transferrin receptor on stably transfected CHO-K1 cells (cynomolgus); assay: FACS on cyTfR CHO cells
T5 construct: whole, on cells; also called Cyno TfR-CHO; cyTfR

[6] = target: T5, cynomolgus transferrin receptor on …; assay: FACS, cyno TfR against human TfR
[7] = target: T2, human transferrin receptor (BIAcore, …); assay: SPR (BIAcore), human TfR against cyno TfR
[8] = target: T6, biotinylated cynomolgus transferrin receptor (cynomolgus); assay: SPR BIAcore T200, biotinylated TfR captured, 25 C
T6 chain: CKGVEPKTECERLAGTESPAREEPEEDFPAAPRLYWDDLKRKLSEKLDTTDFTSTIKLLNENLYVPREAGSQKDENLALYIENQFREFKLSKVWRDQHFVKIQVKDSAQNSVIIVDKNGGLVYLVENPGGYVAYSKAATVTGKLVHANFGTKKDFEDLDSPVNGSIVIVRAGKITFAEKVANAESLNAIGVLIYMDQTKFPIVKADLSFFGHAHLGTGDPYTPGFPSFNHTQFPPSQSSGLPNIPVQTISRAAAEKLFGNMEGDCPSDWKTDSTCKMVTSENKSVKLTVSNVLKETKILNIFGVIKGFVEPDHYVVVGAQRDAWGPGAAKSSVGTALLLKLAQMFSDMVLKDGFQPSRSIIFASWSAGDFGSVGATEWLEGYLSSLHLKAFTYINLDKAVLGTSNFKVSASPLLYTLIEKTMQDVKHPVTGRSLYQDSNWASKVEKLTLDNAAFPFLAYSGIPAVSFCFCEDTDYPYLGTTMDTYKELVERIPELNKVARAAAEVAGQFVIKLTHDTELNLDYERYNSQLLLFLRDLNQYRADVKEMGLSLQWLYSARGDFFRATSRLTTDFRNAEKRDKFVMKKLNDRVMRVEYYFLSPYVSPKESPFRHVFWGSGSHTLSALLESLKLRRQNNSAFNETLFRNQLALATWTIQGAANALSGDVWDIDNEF
Procedure: For all analysis the Biotin CAPture Kit from GE Healthcare (Instruction 28-9242-34 AB) was used. First the chip was rehydrated by docking it in the BIAcore T200 instrument. After that, the chip was left on standby with running buffer overnight. For surface preparation the Biotin CAPture Reagent was diluted 1:100 in running buffer (1×PBS, supplemented with 0.25 M NaCl). This solution was injected on Flow Cells 1 to 4 for 360 sec with a flow rate of 2 μL/min. Next the sensor surface was conditioned with three one-minute injections of regeneration solution provided in the Biotin CAPture Kit. This has to be done for the docking procedure or for the first time or after storage. A 100 nM human or cynomolgus, respectively, mono-biotinylated transferrin receptor solution should be injected on Flow Cell 2 for 30 sec at a flow rate of 10 μL/min. […] They were injected on the “hu-TfR-flow cell” (e.g. Flow Cell 2 as prepared as outlined above) with an injection time of 180 sec (association) and a flow rate of 10 μL/min. After dissociation phase of 600 sec the surface was regenerated according to the manufacturer's instructions with the regeneration solution provided in the Biotin CAPture Kit and the next cycle was carried out.
The kinetic data was evaluated using the BIAcore T200 evaluation software. Especially the dissociation rate constants of the different human transferrin receptor binders were taken into account after the application of the 1:1 Langmuir binding model.

[9] = target: T6, biotinylated cynomolgus transferrin …; assay: SPR BIAcore B4000, biotinylated TfR captured, 25 C
Procedure: as §1

T1 sequence (P02786 89-760 limits assumed): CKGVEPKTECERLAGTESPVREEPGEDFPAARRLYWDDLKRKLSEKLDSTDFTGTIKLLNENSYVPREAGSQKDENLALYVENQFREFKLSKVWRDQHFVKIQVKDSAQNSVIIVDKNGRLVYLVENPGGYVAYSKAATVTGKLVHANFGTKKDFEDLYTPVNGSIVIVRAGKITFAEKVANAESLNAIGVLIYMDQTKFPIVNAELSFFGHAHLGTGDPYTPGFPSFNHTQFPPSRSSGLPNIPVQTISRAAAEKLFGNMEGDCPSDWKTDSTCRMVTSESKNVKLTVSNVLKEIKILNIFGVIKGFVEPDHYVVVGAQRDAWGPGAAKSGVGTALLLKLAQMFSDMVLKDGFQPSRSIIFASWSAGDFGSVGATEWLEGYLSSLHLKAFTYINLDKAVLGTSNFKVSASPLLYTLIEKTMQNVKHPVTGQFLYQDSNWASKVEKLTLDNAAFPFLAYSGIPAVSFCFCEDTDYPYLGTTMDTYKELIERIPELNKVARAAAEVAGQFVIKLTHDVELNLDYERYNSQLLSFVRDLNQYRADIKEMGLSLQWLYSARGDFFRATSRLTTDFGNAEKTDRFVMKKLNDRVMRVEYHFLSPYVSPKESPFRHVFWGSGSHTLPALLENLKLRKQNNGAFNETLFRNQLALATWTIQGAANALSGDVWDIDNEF

B1: VH23-DANG / VK2-SYS (antibody, V domains shown)
VH: QSMQESGPGLVKPSQTLSLTCTVSGFSLSSYAMSWIRQHPGKGLEWIGYIWSGGSTDYASWAKSRVTISKTSTTVSLKLSSVTAADTAVYYCARRYGTSYPDYGDANGFDPWGQGTLVTVSS
VL: DIQMTQSPSSLSASVGDRVTITCRASQSISSYLNWYQQKPGKAPKLLIYRASTLASGVPSRFSGSGSGTDFTLTISSLQPEDFATYYCQQSYSSSNVDNTFGGGTKVEIK
koff [1]: 0.00522 s⁻¹

B3: VH9-DANG / VK9-NYA (antibody, V domains shown)
VH: QQLLESGGGLVQPGGSLRLSCAASGFTFSSYAMSWVRQAPGKGLEWVGYIWSGGSTDYADSVKGRFTISRDNSKNTLYLQMNSLRAEDTAVYYCAKRYGTSYPDYGDANGFDPWGQGTLVTVSS
VL: AIQLTQSPSSLSASVGDRVTITCRASQSISSYLAWYQQKPGKAPKLLIYRASTLASGVPSRFSGSGSGTDFTLTISSLQPEDFATYYCQQNYASSNVDNTFGGGTKVEIK
koff [1]: 0.00182 s⁻¹

B4: VH7-DANG / VK6-SYS (antibody, V domains shown)
VH: QQLVETGGGLIQPGGSLRLSCAASGFSLSSYAMSWVRQAPGKGLEWIGYIWSGGSTDYASWAKGRFTISRDNSKNTLYLQMNSLRAEDTAVYYCARRYGTSYPDYGDANGFDPWGQGTLVTVSS
VL: AIQLTQSPSSLSASVGDRVTITCRASQSISSYLSWYQQKPGKAPKLLIYRASTLASGVPSRFSGSGSGTDFTLTISSLQPEDFATYYCQQSYSSSNVDNTFGGGTKVEIK
koff [1]: 0.0308 s⁻¹

B5: VH9-DANG / VK2-SYS (antibody, V domains shown)
VH: QQLLESGGGLVQPGGSLRLSCAASGFTFSSYAMSWVRQAPGKGLEWVGYIWSGGSTDYADSVKGRFTISRDNSKNTLYLQMNSLRAEDTAVYYCAKRYGTSYPDYGDANGFDPWGQGTLVTVSS
VL: DIQMTQSPSSLSASVGDRVTITCRASQSISSYLNWYQQKPGKAPKLLIYRASTLASGVPSRFSGSGSGTDFTLTISSLQPEDFATYYCQQSYSSSNVDNTFGGGTKVEIK
koff [1]: 0.0402 s⁻¹

B6: VH23-DANG / VK12-HYS (antibody, V domains shown)
VH: QSMQESGPGLVKPSQTLSLTCTVSGFSLSSYAMSWIRQHPGKGLEWIGYIWSGGSTDYASWAKSRVTISKTSTTVSLKLSSVTAADTAVYYCARRYGTSYPDYGDANGFDPWGQGTLVTVSS
VL: DIQMTQSPSSLSASVGDRVTITCRASQSISSYLAWYQQKPGKAPKLLIYRASTLASGVPSRFSGSRSGTDFTLTISSLQPEDFATYYCQQHYSSSNVDNTFGGGTKVEIK
koff [1]: 0.0153 s⁻¹

B7: VH23-DANG / VK6-SYS (antibody, V domains shown)
VH: QSMQESGPGLVKPSQTLSLTCTVSGFSLSSYAMSWIRQHPGKGLEWIGYIWSGGSTDYASWAKSRVTISKTSTTVSLKLSSVTAADTAVYYCARRYGTSYPDYGDANGFDPWGQGTLVTVSS
VL: AIQLTQSPSSLSASVGDRVTITCRASQSISSYLSWYQQKPGKAPKLLIYRASTLASGVPSRFSGSGSGTDFTLTISSLQPEDFATYYCQQSYSSSNVDNTFGGGTKVEIK
koff [1]: 0.0132 s⁻¹

Continued, values first:

koff [1]: 0.00697 s⁻¹
B2: VH23-DANG / VK15-AYS (antibody, V domains shown)
VH: QSMQESGPGLVKPSQTLSLTCTVSGFSLSSYAMSWIRQHPGKGLEWIGYIWSGGSTDYASWAKSRVTISKTSTTVSLKLSSVTAADTAVYYCARRYGTSYPDYGDANGFDPWGQGTLVTVSS
VL: DIVMTQSPDSLAVSLGERATINCKSSQSISSYLIWYQQKPGQPPKLLIYRASTLASGVPDRFSGSGSGTDFTLTISSLQAEDVAVYYCQQAYSSSNVDNTFGGGTKVEIK

koff [1]: 0.00229 s⁻¹
B8: VH23-DANG / VK17-TYS (antibody, V domains shown)
VH: QSMQESGPGLVKPSQTLSLTCTVSGFSLSSYAMSWIRQHPGKGLEWIGYIWSGGSTDYASWAKSRVTISKTSTTVSLKLSSVTAADTAVYYCARRYGTSYPDYGDANGFDPWGQGTLVTVSS
VL: AIQLTQSPSSLSASVGDRVTITCRASQSISSYLAWYQQKPGKAPKLLIYRASTLASGVPSRFSGSGSGTDFTLTISSLQPEDFATYYCQQTYSSSNVDNTFGGGTKVEIK

koff [2]: 0.000606 s⁻¹ | koff [3]: 0.0547 s⁻¹ | EC50 [4]: 0.096 µg/mL | EC50 [5]: 0.314 µg/mL | ratio EC50 Cyno/human [6]: 3.3 | ratio max Cyno/human [6]: 0.6 | ratio t1/2 human/Cyno [7]: 90.2 | Kd [8]: 136 nM | koff [8]: 0.0733 s⁻¹ | kon [8]: 541000 M⁻¹ s⁻¹ | koff [9]: 0.0778 s⁻¹
B9: murine anti-transferrin receptor antibody 128.1 (antibody, V domains shown)
VH: QVQLVQSGAEVKKPGASVKVSCKASGYTFTGYTMNWVRQAPGQGLEWMGRINPHNGGTDYAQKFQGRVTMTRDTSISTAYMELSRLRSDDTAVYYCARGYYYYSLDYWGQGTLVTVSS
VL: DIQMTQSPSSLSASVGDRVTITCRASSSIRYIHWYQQKPGKAPKRLIYDTSNLASGVPSRFSGSGSGTEFTLTISSLQPEDFATYYCHQRNSYPWTFGQGTRLEIK
notes: Mouse anti-human TfR antibody
